Source: publication PMC6908617, “Evolutionary conservation of the intrinsic disorder-based Radical-Induced Cell Death1 hub interactome” (Scientific Reports, 2019)
Like-named read-outs stand apart in the source and are kept apart here.

B2: AtRCD1-RST(499–572) (domain or fragment, Arabidopsis thaliana, UniProt Q8RY59 499-572, looked up)
chain: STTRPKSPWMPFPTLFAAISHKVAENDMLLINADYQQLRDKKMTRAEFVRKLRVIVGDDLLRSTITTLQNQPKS
notes: RST domain of Radical-Induced Cell Death1 (RCD1), Arabidopsis thaliana, residues 499-572; also called AtRST(499–572); Arabidopsis RST domain
B5: AtDREB2A(244–272) (peptide, UniProt O82132 244-272, looked up)
chain: WPNDVDQSHLDSSDMFDVDELLRDLNGDD

Columns and labels:
[1] = molecular target: RCD1 RST (Arabidopsis thaliana) (UniProt Q8RY59); settings: cited from earlier work
[2] = molecular target: RCD1 499-572 (Arabidopsis thaliana) (UniProt Q8RY59); assay: ITC; settings: cited from earlier work
AtDREB2A(244–272) = molecular target: B5; assay: ITC; RST domain in the syringe (100–300 µM) titrated into the TF fragment in the cell (10–30 µM); 25 °C; 50 mM Hepes, pH 7.4, 100 mM NaCl; one set of sites model
[3] = molecular target: ANAC013(254–274) (Arabidopsis thaliana) (UniProt F4IED2); assay: as above
[4] = molecular target: GmDREB2A(273–290) (Glycine max (soybean)); assay: as above
AtRCD1-RST(499–572) [5] = molecular target: B2; assay: ITC; ANAC087(315–335) in the syringe (100–300 µM) titrated into the RST domain in the cell (10–30 µM); 25 °C; 50 mM Hepes, pH 7.4, 100 mM NaCl; one set of sites model; settings: both partners purified
HvNAC013(176–346) = molecular target: T1, HvNAC013(176–346) (Hordeum vulgare (barley), UniProt F2EJH0 176-346); assay: ITC; RST domain in the syringe (100–300 µM) titrated into the TF fragment in the cell (10–30 µM); 25 °C; 50 mM Hepes, pH 7.4, 100 mM NaCl; one set of sites model; settings: both partners purified
T1 construct: HvNAC013, barley (Hordeum vulgare) NAC transcription factor, ID AK376297.1, residues 176-346; also called barley ortholog of ANAC046; source: plasmid from previous work
T1 sequence (looked up): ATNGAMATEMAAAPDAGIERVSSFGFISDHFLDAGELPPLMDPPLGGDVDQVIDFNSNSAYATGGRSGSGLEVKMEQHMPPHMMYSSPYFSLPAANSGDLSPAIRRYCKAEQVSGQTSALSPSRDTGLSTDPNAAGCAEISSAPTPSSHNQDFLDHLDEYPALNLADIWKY

[6] = molecular target: HvDRF1.1(255–273) (Hordeum vulgare (barley)); assay: as above
AtRCD1-RST(499–572) [7] = molecular target: B2; assay: as above; settings: both partners purified

Chain of ANAC013(254–274) (Arabidopsis thaliana) (F4IED2 254-274): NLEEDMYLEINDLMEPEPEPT

In the case of ANAC046 (from UniProt Q9SQQ6), the Kd [1] is given as 609 nM.

In the case of ANAC013 254-274 (from UniProt F4IED2), the Kd [2] is listed as 9 nM.

Work on “GmRCD1-RST(483–583) (domain or fragment)” yielded a Kd (AtDREB2A(244–272)) of 320 nM, a dH (AtDREB2A(244–272)) of -9.25 kcal/mol and a stoichiometry N (AtDREB2A(244–272)) of 0.95. The Kd [3] was 526 nM, the dH [3] was -8.77 kcal/mol and the stoichiometry N [3] was 0.94. For the same molecule, the Kd [4] was 2590 nM, the dH [4] was -5.62 kcal/mol and the stoichiometry N [4] was 0.98.

B1: ANAC087(315–335) (peptide, UniProt Q9FK44 315-335, looked up)
chain: MVNGSKSYEDLCDLRGDLWDF
notes: NAC transcription factor ANAC087, Arabidopsis thaliana, AT5G18270, residues 315-335
For B1, the Kd (AtRCD1-RST(499–572) [5]) was 1750 nM, the dH (AtRCD1-RST(499–572) [5]) was -3.8 kcal/mol and the “stoichiometry N” value (AtRCD1-RST(499–572) [5]) was 0.93.

With B2 the Kd (HvNAC013(176–346)) was 343 nM, the dH (HvNAC013(176–346)) was -1.08 kcal/mol and the “stoichiometry N” value (HvNAC013(176–346)) was 1.03. For the same molecule, the dH (AtDREB2A(244–272); both partners purified) was -15.1 kcal/mol, the “stoichiometry N” value (AtDREB2A(244–272); both partners purified) was 0.9 and the Kd [4] was 397 nM. The dH [4] was -8.34 kcal/mol, the Kd [6] was 450 nM and the dH [6] was -11.6 kcal/mol.

B3: AtDREB2A(244–272;L264I) (peptide, UniProt O82132 244-272, looked up)
chain: WPNDVDQSHLDSSDMFDVDEILRDLNGDD
notes: DREB2A, Arabidopsis thaliana, AT5G05410, residues 244-272 with Leu264 to Ile; source: mutation by QuikChange
Molecule B3 has a Kd (AtRCD1-RST(499–572) [7]) of 39 nM.

B4: ANAC013(254–274;L266I) (peptide, UniProt F4IED2 254-274, looked up)
chain: NLEEDMYLEINDIMEPEPEPT
notes: ANAC013, Arabidopsis thaliana, AT1G32870, residues 254-274 with Leu266 to Ile; Probably made from the ANAC013(254–274) plasmid of previous work and purified in the same way; also called AtANAC013(254–274;L266I)
B4 gave a Kd (AtRCD1-RST(499–572) [7]) of 223 nM.

With B5 the Kd (AtRCD1-RST(499–572) [7]) was 16 nM.
